For two substances, Kd results are on record in paper PMC7730189.

The subject of series [1] is Chimera E (HsaCCA with RcuCCA beta-turn region) (Homo sapiens / Romanomermis culicivorax chimera). The series is described as follows: EMSA. The following applies: 6 mM Mg2+; HEPES/KOH pH 7.6, 30 mM KCl, 6 mM MgCl2, 20 C, 10 min; 0.5 pmol tRNA, 0-4 uM enzyme; 5% native PAGE; n = 3.
In series [2] the test system is RcuCCA (CCA-adding enzyme, tRNA nucleotidyltransferase) (Romanomermis culicivorax). The series is described as follows: EMSA. The following applies: 6 mM Mg2+; HEPES/KOH pH 7.6, 30 mM KCl, 6 mM MgCl2, 20 C, 10 min; 0.5 pmol tRNA, 0-4 uM enzyme; 5% native PAGE; n = 3.

In general, Kd refers to a measure of binding affinity in units of concentration. A higher Kd goes with a looser complex. For mt-tRNAIle (armless, lacking CCA), the Kd in series [1] came out at 1.8 µM; in series [2] it was 1.4 µM.

In series [2], “GCGGAUUUAGCUCAGUUGGGAGAGCGCCAGACUGAAGAUCUGGAGGUCCUGUGUUCGAUCCACAGAAUUCGCA [tRNAPhe (lacking CCA)]” registered a dissociation constant Kd of 1.3 µM.
